According to patent US6303361, “Human glandular kallikrein-1 (hK2)” (Orion-Yhtyma Oyj, dated 2001):

Key:
α1-antichymotrypsin = α1-antichymotrypsin (Homo sapiens (Human), UniProt P01011); assay: complex formation with serpin (method not described)
α1-antitrypsin = α1-antitrypsin (Homo sapiens (Human), UniProt P01009); assay: as above

binding result (α1-antichymotrypsin): no binding
binding result (α1-antitrypsin): no binding
B1: recombinant Trp226-hK2 protein (Trp226-hK2 having the N-terminal dipeptide extension Ser-Arg, from insect cells) (enzyme)
chain: not shown
